From patent CN114773485A (JIANGSU SIMCERE PHARM CO LTD, dated 2022) come the findings set out here.

“And” between values parts separate entries of the source, which are not always exact repeats. Equal values may be shown once.

The target in test [1] is T1, PD-L1 on CHO-PD-L1 cells (UniProt Q9NZQ7 19-290, limits assumed). Kind of test: cell-based or functional assay.
The target in test [2] is T2, 食蟹猴PD-L1蛋白(Cat.#90251-C08H，Sinobiological) (cynomolgus monkey, UniProt G7PSE7 19-239).
T2 construct: Bought protein used as analyte in Biacore; also called 食蟹猴PD-L1-His蛋白; 食蟹猴PD-L1重组蛋白; not shown: His tag
T2 sequence (G7PSE7 entry or part of it C08H C08H): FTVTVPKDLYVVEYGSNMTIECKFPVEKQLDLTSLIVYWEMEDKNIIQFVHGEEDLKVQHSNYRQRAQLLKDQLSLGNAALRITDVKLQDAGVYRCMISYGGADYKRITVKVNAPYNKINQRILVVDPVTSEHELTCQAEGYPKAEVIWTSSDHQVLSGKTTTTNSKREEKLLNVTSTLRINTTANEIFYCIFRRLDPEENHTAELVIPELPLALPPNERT
Kind of test: SPR, Biacore T200, antibody captured on Protein A chip, 25℃, 1:1 model.

The target in the test “人PD-L1重组蛋白(Sino …)” is T3, 人PD-L1重组蛋白(Sino Biological,Cat.10084-H05H) (human, UniProt Q9NZQ7 19-239).
T3 construct: also called 人PD-L1蛋白
T3 sequence (Q9NZQ7 19-239 limits assumed): as the sequence (G7PSE7 entry or part of it C08H C08H) above, with T33A, S34A, N62S, Q68R, R82Q, L173F, A185T, I192T, L215H counted along it
Kind of test: competition ELISA, human PD-L1 coated, blocks PD-1-His.

For another test, the target named is T4, 重组人TGF-β1蛋白 (human, UniProt P01137 279-390).
T4 construct: also called 重组人、食蟹猴TGF-β1(Cat.#10804-HNAC，Sinobiological); 人TGF-β1重组蛋白(Novoprotein,Cat.CA59)
T4 sequence (P01137 279-390 limits assumed): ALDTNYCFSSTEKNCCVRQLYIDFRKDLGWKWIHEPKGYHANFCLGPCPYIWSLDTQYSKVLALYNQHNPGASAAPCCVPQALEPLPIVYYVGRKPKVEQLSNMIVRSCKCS
Kind of test: bridging ELISA: TGF-β1 coated, test molecule, then PD-L1-His and anti-His-HRP.

Test [3] has as its target T1, PD-L1 on CHO-PD-L1 cells. The experiment in a line: flow cytometry on CHO-PD-L1 cells, anti-human IgG PE.
Test [4] addresses T5, PD-L1 on mature human dendritic cells (human, UniProt Q9NZQ7 19-290).
T5 construct: whole, on cells; also called DC细胞表面PD-L1
The experiment in a line: flow cytometry on mature human DC, anti-human IgG PE.

T1 sequence (Q9NZQ7 19-290 limits assumed): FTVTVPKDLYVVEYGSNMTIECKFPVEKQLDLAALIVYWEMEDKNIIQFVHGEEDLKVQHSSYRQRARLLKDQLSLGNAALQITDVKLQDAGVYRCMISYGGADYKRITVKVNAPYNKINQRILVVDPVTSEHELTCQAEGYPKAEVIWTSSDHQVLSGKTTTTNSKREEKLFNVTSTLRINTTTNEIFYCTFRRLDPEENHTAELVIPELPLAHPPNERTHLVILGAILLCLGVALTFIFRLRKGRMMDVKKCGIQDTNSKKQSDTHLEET
T5 sequence (Q9NZQ7 19-290): as the sequence (Q9NZQ7 19-290 limits assumed) above

B1: 人源化抗PD-L1抗体156-BM12 (antibody, V domains shown)
VH: QVQLVQSGPELKKPGASVKISCKASGYTFTDYYMNWVRQAPGQSLEWIGDINPNNGDTSYNQKFKGRVTLTRDTSTSTVYMELRSLRSEDTAVYYCARSVMDYWGQGTLVTVSS
VL: EIVLTQSPALLSLSPGERVTLSCSASSSVNYVYWYQQKPGQAPRPLIYLTFNLASGIPARFSGSGSGTDFTLTISSLEPEDFAVYYCQQWSSNPLTFGGGTKVEIK
notes: also called PD-L1单抗156-BM12; 人源化PD-L1抗体
For B1, in the test with PD-L1 on CHO-PD-L1 cells [1], the “EC50, NFAT luciferase reporter (RLU), Jurkat-PD-1/CHO-PD-L1” value is 341 ng/ml and 2.15 nM. Besides, the binding result in test [2] is recorded as “binds”; with 重组人TGF-β1蛋白 it was “no binding (tested: 4nM)”. In the test with 人PD-L1重组蛋白(Sino …), the IC50 is 896 pM and 1490 pM. In addition, the EC50 with PD-L1 on CHO-PD-L1 cells [3] was determined as 0.105 µg/mL; in test [4] it was 405 pM.
